# Laboratory results published in publication PMC10460880, “Cathepsin K‐Activated Probe for Fluoro‐Photoacoustic Imaging of Early Osteolytic Metastasis” (Advanced Science, 2023).
# Experiments:
# [1] = system: CTSK + 2-CP; CTSB, FAP-α, Casp-3, APN, GGT, ALP, ACE, trypsin; assay: Selectivity study: fluorescence activation with inhibited CTSK or other proteases; format: biochemical; conditions: probe 10 μM, 1 h; 2-CP 50 mM pre-treatment 30 min; n = 3
# Experimental: In vitro analysis of cathepsin K (CTSK) activation, selectivity, and sensitivity studies.
# Probe CTSK-APPA, D-CTSK-APPA, or CTSK-APP (10 μM) was incubated with CTSK in MES buffer (50 mM, pH 6.0) containing 0.1% DMSO, 2 mM ethylene diamine tetraacetic acid (EDTA), 4 mM dithiothreitol (DTT) and 0.15% chondroitin sulfate (CS) at 37 °C for 1 h. After incubation at the indicated time, UV-Vis spectra, fluorescence spectra, fluorescence images, and PA images of the solutions were recorded. Probe CyP (10 μM) incubated with CTSK (200 ng/mL) for 1 h was further analyzed by HPLC. For selectivity study, CTSK-APPA (10 μM) in a 96-well plate was incubated with CTSK (100 ng/mL), CTSB (100 ng/mL), FAP-α (9×10-4 U/mL), Caspase-3 (100 ng/mL), APN (100 ng/mL), GGT (0.1 U/mL), ALP (0.1 U/mL), ACE (1×10-3 U/mL), and trypsin (10 U/L) at […] for 1 h. For the inhibitory experiment, CTSK (100 ng/mL) was treated with CTSK inhibitor 2-Cyanopyrimidine (2-CP, 50 mM) at 37°C for 30 min. […]
# Kinetic assay. […] Fluorescence intensities of solution were measured for quantification analyses by a microplate reader (BioTek, Synergy 2) with excitation at 690 nm and emission at 720 nm. The kinetic parameters were calculated according to the Michaelis-Menten equation shown below: V = Vmax×[S]/(Km + [S]), where V is initial velocity, and [S] is substrate concentration. […]
# [2] = Bone marrow toxicity analysis (blood RBC and WBC counts); format: in vivo, BALB/c nude mice; conditions: i.v. 50 μM, 200 μL; blood 24 h post-injection; n = 3
# Experimental: Bone marrow toxicity analysis. The bone marrow toxicity of CTSK-APPA and CTSK-APP was assessed by blood analyses in mice. SPF grade 4-week-old BALB/c nude mice were intravenously injected with CTSK-APPA(50 μM, 200 μL) or saline (200 μL). The blood samples were collected in anticoagulant tubes at 24 h post-injection and stored at 4°C. The red blood count (RBC) and white blood count (WBC) were further measured.
# Renal clearance efficiency studies. SPF grade 4-week-old BALB/c nude mice were intravenously injected with CTSK-APPA or CTSK-APP (50 μM, 200 μL) and placed in metabolic cages. The urine was collected at 3, 6, and 24 h post-injection, and then centrifuged at 5000 r.p.m. for 5 min. The supernatants containing excreted probes were quantified by using a UV-vis absorption spectrometer. […]
# In vivo Bioluminescence, DR, CT, and MR imaging. […] Then BL imaging was recorded on an IVIS Spectrum imaging system at 10 min post-injection under anesthesia using isoflurane. All data were analyzed with the Living Image software. DR, CT, and MR imaging were recorded on an IVIS Spectrum imaging system, a single-photon emission computed tomography imaging system, and a preclinical magnetic resonance solution system, respectively.
# Real-time tumor imaging. […] Fluorescence and PA images were acquired at 0, 1, 2, 4, 8, 12, and 24 h post-injection. […]
# Histology. […] Images were captured by using a fluorescence microscope. […]
# [3] = Histology (H&E) of organs after injection; format: in vivo, mice; conditions: 24 h post intravenous administration
substance,measurement,setting,value
Cbz‐Leu‐Arg‐OH [CTSK-APPA],fluorescence activation at 720 nm by CTSK with inhibitor 2-CP or by other proteases,[1],almost no fluorescence activation
same,red blood cell (RBC) and white blood cell (WBC) counts vs saline group,[2],No apparent differences
same,histological changes (H&E) after injection,[3],no histological changes
